From patent publication US20130046257A1, “METHODS OF USING AGENTS THAT MODULATE CLAUDIN EXPRESSION” (priority 2010, published 2013)
Several values for one entry are separate records, joined by “and”; a condition that tells them apart may be missing. Equal entries are not always repeated.

Tests used:
Format in all cases: cell-based, human
HSV-1 strain F [1] = experiment: Infectious center assay (HSV-1 infected PHK on Vero cells); details: siRNA 100 nM, 24 h post-infection, n=3
Method: (§1) Infection studies were performed using the highly virulent HSV-1 strain F (provided by Dr. D.C. Johnson). Twenty-four to 48 h post-transfection with 100 nM claudin-1 or control siRNA, the cells were differentiated in DMEM with 10% heat-inactivated FBS for 24 h. Cells were washed twice with HBSS and infected with HSV-1 strain F at a multiplicity of infection (MOI) of 0.1 in DMEM containing 1% heat-inactivated FBS at 37° C., with rocking every 15 min. After 2 h, the viral inoculum was removed, and the cells were washed 2× with HBSS and incubated in DMEM containing 5% HI-FBS and 0.4% human-γ-globulin (Sigma; final concentration 0.5 mg/ml) for 24 hr to neutralize any extracellular virus.
Twenty-four hours post-infection, PHK were treated with 0.05% Trypsin—EDTA (Invitrogen/Gibco) for 5 min at 37° C. followed by gently scraping to lift the cells, washed 3 times in DMEM containing 1% HI-FBS, and vortexed for 30 sec to disrupt cell clumps. Alive cells were counted using Trypan blue exclusion and scalar PHK dilutions (1000 to 1 cells in 1 ml of media) were plated onto pre-grown monolayers of Vero cells in six well plates. After 2 h, 1 ml of DMEM containing 5% HI-FBS and 0.4% human-γ-globulin (Sigma; final concentration 0.5 mg/ml) was added to each well. […] Plaques were counted by 2 independent investigators and results expressed as percent of infected PHK.

HSV-1 strain F [2] = experiment: HSV-1 fluorescent-focus assay in siRNA transfected PHK; details: siRNA 100 nM
Method: as §1
HSV-infected PHK were washed 2× with PBS and fixed in 4% formaldehyde/PBS for 20 min at room temperature. A polyclonal rabbit anti-HSV-1 (Dako) antibody diluted 1:500 in PBS/1% BSA was placed on the PHK for 1 h at 37° C. followed by Alexa Fluor 488 donkey-anti-rabbit IgG H+L (1:1000, Molecular Probes) and 4′,6-diamidino-2-phenyl-indole, dihydrochloride (DAPI) (1:10,000, Molecular Probes). Coverslips were mounted onto slides with SlowFade (Molecular Probes). […] Images were stored in Portable Network Graphics (PNG) format and analyzed computationally to objectively quantify differences in focal forming units (FFU). […] Cell density was calculated by counting the number of DAPI labeled nuclei, assigned to the blue channel. Images were analyzed using MATLAB to enumerate FFU, and total cell number. […]
The MOI was chosen based on findings from viral titration (0.01 to 10 MOI) studies on differentiated and undifferentiated PHK, respectively, used as negative and positive controls. […] For each sample, six random fields were captured at identical acquisition settings and analyzed computationally to objectively quantify differences in focal forming units (FFU). […] An average of 4.8±0.7 FFU/field were counted in CLDN1 knockdown PHK, while only 2.5±0.5 FFU/field were detected in the control cells (P=0.05; n=6; FIG. 15C). Adapted Fluorospot software was used to semi-quantify differences in dimensions of each FFU. […]

connexin-26 (GJB2) = experiment: qPCR of connexin-26 in claudin-1 siRNA transfected PHK; details: n=6
Method: QPCR was performed using the iScript™ cDNA Synthesis kit and iQ™ SYBER Green Supermix assay system (Bio-Rad Laboratories). All PCR amplifications were carried out in triplicate on an iQ5 Multicolor real-time PCR detection system (Bio-Rad). Primers were designed and synthesized by Integrated
DNA Technologies (Table 1). Relative gene expression was calculated by using the 2^−ΔΔCt method. Livak and Schmittgen, “Analysis of Relative Gene Expression Data Using Real-Time Quantitative PCR and the 2(-Delta Delta C(T)) Method,” Methods 25:402-8 (2001), which is hereby incorporated by reference in its entirety. The normalized Ct value of each sample was calculated using GAPDH as an endogenous control gene.

B1: CLDN1 siRNA: claudin-1 siRNA (h), Santa Cruz; a pool of 3 separate strands, SEQ ID NO: 10-15 (nucleic acid)
chain 1: UACAUAGGCAUAGUUCAUGNN
chain 2: CAUGAACUAUGCCUAUGUANN
chain 3: AACGUAUGCAGUUAAUUCCNN
chain 4: GGAAUUAACUGCAUACGUUNN
chain 5: UGAAGAUCUAUGUAUGUGGNN
chain 6: CCACAUACAUAGAUCUUCANN
modifications: chemistry not given here
HSV-1 strain F [1]
  PHK infected with HSV-1: 38±6% and 38±6.43%
HSV-1 strain F [2]; HSV-1 MOI 0.1, 24 h, n=6
  HSV-1 focal forming units: 4.8±0.7 FFU/field
HSV-1 strain F [2]; HSV-1 MOI 0.1, n=6
  FFU area: 15649±4367 pixels
  diameter of the major axis of FFU: 207±22 μm and 207±21 μm
connexin-26 (GJB2)
  connexin-26 (GJB2) expression, fold over control: 1.7±0.8 fold
